Laboratory results as given in patent US20250163127A1.
Where a chain is given by its changes, count along the chain named. In names and notes the source's numbering stands.

B1: CD80 variant A26E/Q33R/E35D/M47L/L85Q/K86E IgV-Fc (Fc fusion)
chain: VIHVTKEVKEVATLSCGHNVSVEELEQTRIYWRKDKKMVLTMMSGDLNIWPEYKNRTIFDITNNLSIVILALRPSDEGTYECVVQEYEKDAFKREHLAEVT
B2: CD80 variant A26E/Q33R/E35D/M47L/L85Q IgV-Fc (Fc fusion)
chain: B1 chain with E86K
B3: CD80 variant E35D/M47L/L85Q IgV-Fc (Fc fusion)
chain: B1 chain with E26A, R33Q, E86K
B4: CD80 variant A26E/Q33L/E35D/M47L/L85Q IgV-Fc (Fc fusion)
chain: B1 chain with R33L, E86K
B5: CD80 variant A26E/Q33L/E35D/M47L IgV-Fc (Fc fusion)
chain: B1 chain with R33L, Q85L, E86K
B6: CD80 variant H18Y/A26E/Q33L/E35D/M47L/L85Q IgV-Fc (Fc fusion)
chain: B1 chain with H18Y, R33L, E86K
B7: CD80 variant Q33L/E35D/M47I IgV-Fc (Fc fusion)
chain: B1 chain with E26A, R33L, L47I, Q85L, E86K
B8: CD80 variant H18Y/Q33L/E35D/M47I IgV-Fc (Fc fusion)
chain: B1 chain with H18Y, E26A, R33L, L47I, Q85L, E86K
B9: CD80 variant H18Y/E35D/M47L IgV-Fc (Fc fusion)
chain: B1 chain with H18Y, E26A, R33Q, Q85L, E86K
B10: CD80 variant Q33L/E35D/T41S/M47V IgV-Fc (Fc fusion)
chain: B1 chain with E26A, R33L, T41S, L47V, Q85L, E86K
B11: CD80 variant Q33L/E35D/M47I/L85Q IgV-Fc (Fc fusion)
chain: B1 chain with E26A, R33L, L47I, E86K
B12: CD80 variant Q33L/E35D/M47I/T62N/L85Q IgV-Fc (Fc fusion)
chain: B1 chain with E26A, R33L, L47I, T62N, E86K
B13: CD80 variant Q33L/E35D/M47V/L85Q IgV-Fc (Fc fusion)
chain: B1 chain with E26A, R33L, L47V, E86K
B14: CD80 variant A26E/E35D/M43T/M47L/L85Q/R94Q IgV-Fc (Fc fusion)
chain: B1 chain with R33Q, M43T, E86K, R94Q
B15: CD80 variant V22A/E23D/Q33L/E35D/M47V IgV-Fc (Fc fusion)
chain: B1 chain with V22A, E23D, E26A, R33L, L47V, Q85L, E86K
B16: CD80 variant E7D/E35D/M47I/L97Q IgV-Fc (Fc fusion)
chain: B1 chain with E7D, E26A, R33Q, L47I, Q85L, E86K, L97Q
B17: CD80 variant Q33L/E35D/T41S/M43I IgV-Fc (Fc fusion)
chain: B1 chain with E26A, R33L, T41S, M43I, L47M, Q85L, E86K
B18: CD80 variant Q33K/E35D/D46V/L85Q IgV-Fc (Fc fusion)
chain: B1 chain with E26A, R33K, D46V, L47M, E86K
B19: CD80 variant Y31S/E35D/M47L/T79L/E88G IgV-Fc (Fc fusion)
chain: B1 chain with E26A, Y31S, R33Q, T79L, Q85L, E86K, E88G
B20: CD80 variant H18L/V22A/E35D/M47L/N48T/L85Q IgV-Fc (Fc fusion)
chain: B1 chain with H18L, V22A, E26A, R33Q, N48T, E86K
B21: CD80 variant Q33K/E35D/M47V/K89E/K93R IgV-Fc (Fc fusion)
chain: B1 chain with E26A, R33K, L47V, Q85L, E86K, K89E, K93R
B22: CD80 variant E35D/M47I/E77A/L85Q/R94W IgV-Fc (Fc fusion)
chain: B1 chain with E26A, R33Q, L47I, E77A, E86K, R94W
B23: CD80 variant Q27H/Q33L/E35D/M47V/N55D/L85Q/K89N IgV-Fc (Fc fusion)
chain: B1 chain with E26A, Q27H, R33L, L47V, N55D, E86K, K89N
B24: CD80 variant H18Y/V20A/Q33L/E35D/M47V/Y53F IgV-Fc (Fc fusion)
chain: B1 chain with H18Y, V20A, E26A, R33L, L47V, Y53F, Q85L, E86K
B25: CD80 variant V22A/E35D/V68E/A71D IgV-Fc (Fc fusion)
chain: B1 chain with V22A, E26A, R33Q, L47M, V68E, A71D, Q85L, E86K
B26: ICOSL ECD-Fc N84Q (Fc fusion)
chain: DTQEKEVRAMVGSDVELSCACPEGSRFDLNDVYVYWQTSESKTVVTYHIPQNSSLENVDSRYRNRALMSPAGMLRGDFSLRLFQVTPQDEQKFHCLVLSQSLGFQEVLSVEVTLHVAANFSVPVVSAPHSPSQDELTFTCTSINGYPRPNVYWINKTDNSLLDQALQNDTVFLNMRGLYDVVSVLRIARTPSVNIGCCIENVLLQQNLTVGSQTGNDIGERDKITENPVSTGEKNAAT
B27: ICOSL ECD-Fc N168Q (Fc fusion)
chain: B26 chain with Q84N, N168Q
B28: ICOSL ECD-Fc N155Q/N207Q (Fc fusion)
chain: B26 chain with Q84N, N155Q, N207Q
B29: ICOSL ECD-Fc N119Q/N168Q (Fc fusion)
chain: B26 chain with Q84N, N119Q, N168Q
B30: ICOSL ECD-Fc N119Q/N207Q (Fc fusion)
chain: B26 chain with Q84N, N119Q, N207Q
B31: ICOSL ECD-Fc N52Q/N84Q (Fc fusion)
chain: B26 chain with N52Q
B32: ICOSL ECD-Fc N84Q/N119Q (Fc fusion)
chain: B26 chain with N119Q
B33: ICOSL ECD-Fc N84Q/N168Q/N207Q (Fc fusion)
chain: B26 chain with N168Q, N207Q
B34: ICOSL ECD-Fc N119Q/N168Q/N207Q (Fc fusion)
chain: B26 chain with Q84N, N119Q, N168Q, N207Q
B35: ICOSL ECD-Fc N52Q/N119Q/N155Q (Fc fusion)
chain: B26 chain with N52Q, Q84N, N119Q, N155Q
B36: ICOSL ECD-Fc N52Q/N84Q/N119Q/N207Q (Fc fusion)
chain: B26 chain with N52Q, N119Q, N207Q

Legend:
CD28 (human) [1] = biological target: CD28 (human) (UniProt P10747); assay: flow cytometry, Jurkat cells (CD28)
PD-L1 (human) = assay: flow cytometry, CHO cells stably expressing PD-L1
Chain of PD-L1 (human) (chain, as listed by the source): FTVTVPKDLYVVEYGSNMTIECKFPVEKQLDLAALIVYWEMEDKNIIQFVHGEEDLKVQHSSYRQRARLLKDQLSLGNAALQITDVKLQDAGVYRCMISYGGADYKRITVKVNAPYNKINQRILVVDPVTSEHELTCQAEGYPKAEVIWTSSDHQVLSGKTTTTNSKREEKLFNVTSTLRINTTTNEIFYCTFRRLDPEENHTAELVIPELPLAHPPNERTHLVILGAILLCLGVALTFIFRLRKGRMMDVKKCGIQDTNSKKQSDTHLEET

CTLA4 (human) = assay: flow cytometry, CHO cells stably expressing CTLA4
Chain of CTLA4 (human) (chain, as listed by the source): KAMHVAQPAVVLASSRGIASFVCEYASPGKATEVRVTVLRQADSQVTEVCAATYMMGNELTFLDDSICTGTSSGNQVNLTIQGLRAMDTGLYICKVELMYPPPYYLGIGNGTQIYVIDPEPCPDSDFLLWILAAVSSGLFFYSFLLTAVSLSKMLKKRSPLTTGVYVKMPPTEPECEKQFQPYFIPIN

CD28 (human) [2] = biological target: CD28 (human) (UniProt P10747); assay: flow cytometry, transfected cells

Row | Binder | Fold change to WT (CD28 (human) [1]) [fold] | MFI at 33.3 nM (CD28 (human) [1]) [MFI] | Fold change to WT (PD-L1 (human)) [fold] | MFI at 33.3 nM (PD-L1 (human)) [MFI] | Fold change to WT CD80 (CTLA4 (human)) [fold] | MFI at 33.3 nM (CTLA4 (human)) [MFI] | MFI (CD28 (human) [2]) [MFI]
1 | B1 | 0.04 | 275 | 9.56 | 76000 | 0.01 | 1280 | 
2 | B2 | 0.03 | 264 | 10.3 | 81500 | 0.01 | 1280 | 
3 | B3 | 0.08 | 646 | 4.18 | 33200 | 1.88 | 336000 | 
4 | B4 | 0.04 | 274 | 7.89 | 62700 | 0.01 | 1170 | 
5 | B5 | 0.04 | 271 | 7.67 | 60900 | 0.01 | 1320 | 
6 | B6 | 0.04 | 272 | 9.64 | 76600 | 0.01 | 2090 | 
7 | B7 | 0.04 | 282 | 4.7 | 37400 | 0.09 | 15900 | 
8 | B8 | 0.04 | 295 | 6.02 | 47800 | 0.03 | 5540 | 
9 | B9 | 0.66 | 5070 | 5.56 | 44200 | 1.59 | 284000 | 
10 | B10 | 0.04 | 287 | 5.52 | 43800 | 0.08 | 14500 | 
11 | B11 | 0.04 | 287 | 8.05 | 63900 | 0.11 | 20500 | 
12 | B12 | 0.04 | 284 | 9.14 | 72600 | 0.01 | 1660 | 
13 | B13 | 0.04 | 268 | 5.97 | 47400 | 0.42 | 75400 | 
14 | B14 | 0.03 | 260 | 8.57 | 68100 | 1.56 | 278000 | 
15 | B15 | 0.04 | 274 | 9.51 | 75500 | 0.02 | 3640 | 
16 | B16 | 0.04 | 273 | 1.84 | 14600 | 1.52 | 271000 | 
17 | B17 | 0.06 | 433 | 5.66 | 44900 | 0.04 | 6390 | 
18 | B18 | 0.03 | 257 | 3.36 | 26700 | 0.05 | 8510 | 

Row | Binder | Fold change to WT (CD28 (human) [1]) [fold] | MFI at 33.3 nM (CD28 (human) [1]) [MFI] | Fold change to WT (PD-L1 (human)) [fold] | MFI at 33.3 nM (PD-L1 (human)) [MFI] | Fold change to WT CD80 (CTLA4 (human)) [fold] | MFI at 33.3 nM (CTLA4 (human)) [MFI] | MFI (CD28 (human) [2]) [MFI]
19 | B19 | 0.04 | 278 | 4.9 | 38900 | 0.01 | 1100 | 
20 | B20 | 0.06 | 434 | 12.3 | 98100 | 2.09 | 374000 | 
21 | B21 |  | 276 |  | 39100 |  |  | 
22 | B22 | 0.04 | 272 | 8.12 | 64500 | 1.38 | 247000 | 
23 | B23 | 0.04 | 269 | 1.86 | 14800 | 0.31 | 56100 | 
24 | B24 | 0.03 | 260 | 15.2 | 121000 | 0.02 | 2880 | 
25 | B25 | 1.83 | 14000 | 0.17 | 1350 | 2.45 | 437000 | 
26 | B26 |  |  |  |  |  |  | 1760
27 | B27 |  |  |  |  |  |  | 1410
28 | B28 |  |  |  |  |  |  | 1490
29 | B29 |  |  |  |  |  |  | 2530
30 | B30 |  |  |  |  |  |  | 1860
31 | B31 |  |  |  |  |  |  | 1680
32 | B32 |  |  |  |  |  |  | 1490
33 | B33 |  |  |  |  |  |  | 737
34 | B34 |  |  |  |  |  |  | 921
35 | B35 |  |  |  |  |  |  | 552
36 | B36 |  |  |  |  |  |  | 602
